In patent publication US10597433B2, “Peptides and combination of peptides for use in immunotherapy against small cell lung cancer and other cancers” (Immatics Biotechnologies GmbH, priority 2015, dated 2020):

molecular target: HLA-A*02:01 (Homo sapiens, UniProt P04439, D140Y/D185E/D98H/E176V/E277Q/G131W/G231S/I119V/I121R/I166T/I218V/L300P/L318F/N151K/N90K/P208A/P217A/Q86G/Q94H/R138H/R169H/T345S); assay: MHC binding assay: UV-ligand exchange with ELISA detection of β2m of stabilized MHC complexes; conditions: binding to HLA-A*02:01
Excerpt: Candidate peptides for T cell based therapies according to the present invention were further tested for their MHC binding capacity (affinity). The individual peptide-MHC complexes were produced by UV-ligand exchange, where a UV-sensitive peptide is cleaved upon UV-irradiation, and exchanged with the peptide of interest as analyzed. Only peptide candidates that can effectively bind and stabilize the peptide-receptive MHC molecules prevent dissociation of the MHC complexes. To determine the yield of the exchange reaction, an ELISA was performed based on the detection of the light chain (β2m) of stabilized MHC complexes. The assay was performed as generally described in Rodenko et al. (Rodenko et al., 2006).
96 well MAXISorp plates (NUNC) were coated over night with 2 μg/ml streptavidin in PBS at room temperature, washed 4× and blocked for 1 h at 37° C. in 2% BSA containing blocking buffer. Refolded HLA-A*02:01/MLA-001 monomers served as standards, covering the range of 15-500 ng/ml. Peptide-MHC monomers of the UV-exchange reaction were diluted 100 fold in blocking buffer. Samples were incubated for 1 h at 37° C., washed four times, incubated with 2 μg/ml HRP conjugated anti-β2m for 1 h at 37° C., washed again and detected with TMB solution that is stopped with […]. Absorption was measured at 450 nm. Candidate peptides that show a high exchange yield (preferably higher than 50%, most preferred higher than 75%) are generally preferred for a generation and production of antibodies or fragments thereof, and/or T cell receptors or fragments thereof, as they show sufficient avidity to the MHC molecules and prevent dissociation of the MHC complexes.

| Substance | Peptide exchange (MHC class I binding score, peptide exchange yield) |
| --- | --- |
| 67 (MLYDIVPVV; listed as Homo sapiens) [compound 67] | +++ (≥50 = +++) |
| 48 (SLIGLDLSSV; listed as Homo sapiens) [compound 48] | +++ (≥50 = +++) |
| 35 (FMGDVFINV; listed as Homo sapiens) [compound 35] | ++++ (≥75% = ++++) |
| 37 (SLFYNELHYV; listed as Homo sapiens) [compound 37] | +++ (≥50 = +++) |
| 68 (FLFPVYPLI; listed as Homo sapiens) [compound 68] | +++ (≥50 = +++) |
| 3 (VLAEIDPKQLV; listed as Homo sapiens) [compound 3] | +++ (≥50 = +++) |
| 20 (MLDEILLQL; listed as Homo sapiens) [compound 20] | +++ (≥50 = +++) |
| 22 (LLPEKSWEI; listed as Homo sapiens) [compound 22] | +++ (≥50 = +++) |
| 1 (AMLEEVNYI; listed as Homo sapiens) [compound 1] | +++ (≥50 = +++) |
| 69 (KLFDRSVDL; listed as Homo sapiens) [compound 69] | ++ (≥20% = ++) |
| 16 (VILDLPLVI; listed as Homo sapiens) [compound 16] | +++ (≥50 = +++) |
| 54 (HLFDIILTSV; listed as Homo sapiens) [compound 54] | ++++ (≥75% = ++++) |
| 18 (ALGEISVSV; listed as Homo sapiens) [compound 18] | +++ (≥50 = +++) |
| 17 (SLMLVTVEL; listed as Homo sapiens) [compound 17] | +++ (≥50 = +++) |

Results, then the substance that gave them:

| Peptide exchange (MHC class I binding score, peptide exchange yield) | Substance |
| --- | --- |
| +++ (≥50 = +++) | 120 (SLAADIPRL; listed as Homo sapiens) [compound 120] |
| +++ (≥50 = +++) | 73 (SLSSYTPDV; listed as Homo sapiens) [compound 73] |
| +++ (≥50 = +++) | 111 (FLPEAPAEL; listed as Homo sapiens) [compound 111] |
| +++ (≥50 = +++) | 77 (AIIDGKIFCV; listed as Homo sapiens) [compound 77] |
| ++++ (≥75% = ++++) | 102 (ALFARPDLLLL; listed as Homo sapiens) [compound 102] |
| ++++ (≥75% = ++++) | 103 (SLLEYQMLV; listed as Homo sapiens) [compound 103] |
| +++ (≥50 = +++) | 97 (ALLDGTVFEI; listed as Homo sapiens) [compound 97] |
| +++ (≥50 = +++) | 125 (LLSEPSLLRTV; listed as Homo sapiens) [compound 125] |
| +++ (≥50 = +++) | 94 (ALFPVAEDISL; listed as Homo sapiens) [compound 94] |
| +++ (≥50 = +++) | 72 (KAIGSLKEV; listed as Homo sapiens) [compound 72] |
| ++ (≥20% = ++) | 70 (TLLWKLVEV; listed as Homo sapiens) [compound 70] |
| ++++ (≥75% = ++++) | 116 (ALLVRLQEV; listed as Homo sapiens) [compound 116] |
| + (≥10% = +) | 100 (VADPETRTV; listed as Homo sapiens) [compound 100] |
| +++ (≥50 = +++) | 124 (SLITDLQTI; listed as Homo sapiens) [compound 124] |
